Patent US20050008573A1, “Peptides conjugates, their derivatives with metal complexes and use thereof for magnetic resonance imaging (mri)” (priority 2001, published 2005)

Conditions: gadolinium complex

gadolinium complex of (DTPAGLU)4(Lys)2Lys-Gly-Vapreotide [Example 3]
relaxivity: 15 mM⁻¹ s⁻¹
